# Data taken from the Human Domainome abundance scans (Beltran et al. 2025).
# ± gives the uncertainty stated by the source.
# B1: COUP transcription factor 1, residues 83 to 159; numbered along this chain, P10589 (parent)
# chain: HIECVVCGDKSSGKHYGQFTCEGCKSFFKRSVRRNLTYTCRANRNCPIDQHHRNQCQYCRLKKCLKVGMRREAVQRG
# Variants of: B1
# Experiment: abundance fitness (aPCA) (normalised: wild type 0, dead -1); higher = more abundant; growth selection in yeast, the domain comes from the species named
# Conditions: Homo sapiens
row,Variant,abundance fitness
1,HIECVVCGDKSSGRHYGQFTCEGCKSFFKRSVRRNLTYTCRANRNCPIDQHHRNQCQYCRLKKCLKVGMRREAVQRG [K14R],-0.217 ± 0.12
2,HIECVVCGDKSSGDHYGQFTCEGCKSFFKRSVRRNLTYTCRANRNCPIDQHHRNQCQYCRLKKCLKVGMRREAVQRG [K14D],0.228 ± 0.31
3,HIECVVCGDKSSGSHYGQFTCEGCKSFFKRSVRRNLTYTCRANRNCPIDQHHRNQCQYCRLKKCLKVGMRREAVQRG [K14S],0.174 ± 0.14
4,HIECVVCGDKSSGEHYGQFTCEGCKSFFKRSVRRNLTYTCRANRNCPIDQHHRNQCQYCRLKKCLKVGMRREAVQRG [K14E],0.417 ± 0.11
5,HIECVVCGDKSSGWHYGQFTCEGCKSFFKRSVRRNLTYTCRANRNCPIDQHHRNQCQYCRLKKCLKVGMRREAVQRG [K14W],-0.423 ± 0.25
6,HIECVVCGDKSSGQHYGQFTCEGCKSFFKRSVRRNLTYTCRANRNCPIDQHHRNQCQYCRLKKCLKVGMRREAVQRG [K14Q],0.274 ± 0.2
7,HIECVVCGDKSSGYHYGQFTCEGCKSFFKRSVRRNLTYTCRANRNCPIDQHHRNQCQYCRLKKCLKVGMRREAVQRG [K14Y],-0.068 ± 0.5
8,HIECVVCGDKSSGMHYGQFTCEGCKSFFKRSVRRNLTYTCRANRNCPIDQHHRNQCQYCRLKKCLKVGMRREAVQRG [K14M],0.016 ± 0.13
9,HIECVVCGDKSSGVHYGQFTCEGCKSFFKRSVRRNLTYTCRANRNCPIDQHHRNQCQYCRLKKCLKVGMRREAVQRG [K14V],0.115 ± 0.12
10,HIECVVCGDKSSGHHYGQFTCEGCKSFFKRSVRRNLTYTCRANRNCPIDQHHRNQCQYCRLKKCLKVGMRREAVQRG [K14H],0.524 ± 0.29
11,HIECVVCGDKSSGGHYGQFTCEGCKSFFKRSVRRNLTYTCRANRNCPIDQHHRNQCQYCRLKKCLKVGMRREAVQRG [K14G],-0.315 ± 0.14
12,HIECVVCGDKSSGLHYGQFTCEGCKSFFKRSVRRNLTYTCRANRNCPIDQHHRNQCQYCRLKKCLKVGMRREAVQRG [K14L],0.111 ± 0.08
13,HIECVVCGDKSSGTHYGQFTCEGCKSFFKRSVRRNLTYTCRANRNCPIDQHHRNQCQYCRLKKCLKVGMRREAVQRG [K14T],-0.113 ± 0.31
14,HIECVVCGDKSSGPHYGQFTCEGCKSFFKRSVRRNLTYTCRANRNCPIDQHHRNQCQYCRLKKCLKVGMRREAVQRG [K14P],0.201 ± 0.27
15,HIECVVCGDKSSGNHYGQFTCEGCKSFFKRSVRRNLTYTCRANRNCPIDQHHRNQCQYCRLKKCLKVGMRREAVQRG [K14N],0.019 ± 0.39
16,HIECVVCGDKSSSKHYGQFTCEGCKSFFKRSVRRNLTYTCRANRNCPIDQHHRNQCQYCRLKKCLKVGMRREAVQRG [G13S],-0.193 ± 0.049
17,HIECVVCGDKSSQKHYGQFTCEGCKSFFKRSVRRNLTYTCRANRNCPIDQHHRNQCQYCRLKKCLKVGMRREAVQRG [G13Q],0.074 ± 0.059
18,HIECVVCGDKSSMKHYGQFTCEGCKSFFKRSVRRNLTYTCRANRNCPIDQHHRNQCQYCRLKKCLKVGMRREAVQRG [G13M],-0.049 ± 0.068

row,Variant,abundance fitness
1,HIECVVCGDKSSCKHYGQFTCEGCKSFFKRSVRRNLTYTCRANRNCPIDQHHRNQCQYCRLKKCLKVGMRREAVQRG [G13C],-0.95 ± 0.29
2,HIECVVCGDKSSTKHYGQFTCEGCKSFFKRSVRRNLTYTCRANRNCPIDQHHRNQCQYCRLKKCLKVGMRREAVQRG [G13T],-0.115 ± 0.055
3,HIECVVCGDKSSRKHYGQFTCEGCKSFFKRSVRRNLTYTCRANRNCPIDQHHRNQCQYCRLKKCLKVGMRREAVQRG [G13R],-0.243 ± 0.049
4,HIECVVCGDKSSPKHYGQFTCEGCKSFFKRSVRRNLTYTCRANRNCPIDQHHRNQCQYCRLKKCLKVGMRREAVQRG [G13P],-0.175 ± 0.067
5,HIECVVCGDKSSFKHYGQFTCEGCKSFFKRSVRRNLTYTCRANRNCPIDQHHRNQCQYCRLKKCLKVGMRREAVQRG [G13F],-0.206 ± 0.075
6,HIECVVCGDKSSWKHYGQFTCEGCKSFFKRSVRRNLTYTCRANRNCPIDQHHRNQCQYCRLKKCLKVGMRREAVQRG [G13W],-1.04 ± 0.19
7,HIECVVCGDKSSAKHYGQFTCEGCKSFFKRSVRRNLTYTCRANRNCPIDQHHRNQCQYCRLKKCLKVGMRREAVQRG [G13A],0.171 ± 0.04
8,HIECVVCGDKSSLKHYGQFTCEGCKSFFKRSVRRNLTYTCRANRNCPIDQHHRNQCQYCRLKKCLKVGMRREAVQRG [G13L],-0.358 ± 0.054
9,HIECVVCGDKSSNKHYGQFTCEGCKSFFKRSVRRNLTYTCRANRNCPIDQHHRNQCQYCRLKKCLKVGMRREAVQRG [G13N],-0.068 ± 0.11
10,HIECVVCGDKSSEKHYGQFTCEGCKSFFKRSVRRNLTYTCRANRNCPIDQHHRNQCQYCRLKKCLKVGMRREAVQRG [G13E],0.089 ± 0.065
11,HIECVVCGDKSSIKHYGQFTCEGCKSFFKRSVRRNLTYTCRANRNCPIDQHHRNQCQYCRLKKCLKVGMRREAVQRG [G13I],-0.199 ± 0.099
12,HIECVVCGDKSSVKHYGQFTCEGCKSFFKRSVRRNLTYTCRANRNCPIDQHHRNQCQYCRLKKCLKVGMRREAVQRG [G13V],-0.288 ± 0.059
13,HIECVVCGDKSSHKHYGQFTCEGCKSFFKRSVRRNLTYTCRANRNCPIDQHHRNQCQYCRLKKCLKVGMRREAVQRG [G13H],-0.306 ± 0.082
14,HIECVVCGDKSSDKHYGQFTCEGCKSFFKRSVRRNLTYTCRANRNCPIDQHHRNQCQYCRLKKCLKVGMRREAVQRG [G13D],0.053 ± 0.068
15,HIECVVCGDKSSGKAYGQFTCEGCKSFFKRSVRRNLTYTCRANRNCPIDQHHRNQCQYCRLKKCLKVGMRREAVQRG [H15A],-0.029 ± 0.098
16,HIECVVCGDKSSGKEYGQFTCEGCKSFFKRSVRRNLTYTCRANRNCPIDQHHRNQCQYCRLKKCLKVGMRREAVQRG [H15E],0.202 ± 0.26
17,HIECVVCGDKSSGKCYGQFTCEGCKSFFKRSVRRNLTYTCRANRNCPIDQHHRNQCQYCRLKKCLKVGMRREAVQRG [H15C],-0.362 ± 0.25
18,HIECVVCGDKSSGKDYGQFTCEGCKSFFKRSVRRNLTYTCRANRNCPIDQHHRNQCQYCRLKKCLKVGMRREAVQRG [H15D],-0.226 ± 0.24
